Measured values from the DeepSol protein solubility set.

Assay: soluble on expression in E. coli; label from the status in PepcDB or PDB records

Row | Sequence | soluble on expression in E. coli
1 | MGSDKIHHHHHHMYSLAVNNGTLSDEQISGLVHQALADRQLDGQRILILIPDGTRTAPIPQIFRLLHQELGKRVPALDFLIALGTHNPMSEEQINHLVGVTPKERETTFKKVRIFNHLWNEPDTFISCGVISADEIAEISRGMLHQSVEVRVNKLVTQYDLIMICGPVFPHEVVGFSGGNKYFFPGIGGQEVIDISHWLGALITSYEIIGTSGITPVRRLINRAANLISTPKLCLAMVVAPKTNQLAGLYIDKPESAWEAAAKLSDKLHITYVDRSFKQVLSVMPEMYDDIWTAAKGMYKLEPVVADGGEVIIYAPHITEFSYTHGEILSQIGYHVRDYFLKQWDKFQAYPGGVLAHSTHLKGMGTFDFTEGEKARIRVTLATGISAERCAAHNLNYRDPATIRPTEWANREDEGILLVPKSGEILYRLIQA | not soluble
2 | TTILKHLPVGQRIGIAFSGGLDTSAALLWMRQKGAVPYAYTANLGQPDEEDYDAIPRRAMEYGAENARLIDCRKQLVAEGIAAIQCGAFHNTTGGLTYFNTTPLGRAVTGTMLVAAMKEDGVNIWGDGSTYKGNDIERFYRYGLLTNAELQIYKPWLDTDFIDELGGRHEMSEFMIACGFDYKMSVEKAYSTDSNMLGATHEAKDLEYLNSSVKIVNPIMGVKFWDESVKIPAEEVTVRFEQGHPVALNGKTFSDDVEMMLEANRIGGRHGLGMSDQIENRIIEAKSRGIYEAPGMALLHIAYERLLTGIHNEDTIEQYHAHGRQLGRLLYQGRWFDSQALMLRDSLQRWVASQITGEVTLELRRGNDYSILNTVSENLTYKPERLTMEKGDSVFSPDDRIGQLTMRNLDITDTREKLFGYAKTGLLSSSAASGVPQVENLENKGQSVEHHHHHH | soluble
3 | MGHHHHHHSHEWGTVQLRGSWRVGQTAGGSRNFASYPTNPCFPFSVPEGPGPRCVRITLHQHCRPSDTEFHPIGFHIFQVPEGGRSQDAPPLLLQEPLLSCVPHRYAQEVSRLCLLPAGTYKVVPSTYLPDTEGAFTVTIATRIDRPSIHSQEMLGQFLQEVSVMAVMKT | not soluble
4 | MEYKSPVYGIIAVPIEKIESNDYNPNAVAPPEMQLLYKSIKEDGYTMPIVCYYNEEKDKYIIVDGFHRYRVMLENEDIYDRENGLLPVSVIDKSLDERMASTIRHNRARGSHNVDLMSKIITELCEIGKSDEWISKHLGMEVDEILRLKQITGLAYLFKDKEFGNAWIPFGSDIEEEN | not soluble
5 | MSFYYSNIVSNQEKTFYDAQFSMSSLKQVSPISGSPQRDDSFNISPASSSPDMLVETWKSDEENAKSESPSSQSTTATSTNDDLFASVGTWEVHANENNITVNKKKKRSRKIRRLRDVQDSDEERPKPVIALVPLVPNPFCVSDSLLSKLGPVATKRRRVCFNPTISFHYYCVDK | not soluble
6 | MKPKFETVELLSPTGEVVELKVVKRGLAQARPEPVDRNKPAWIKAPLPTGPRYQALKAMVRELRLHTVCQEALCPNIGECWTHGTLTVMILGDICTRACKFCAVHTGNPKGLVDPEEPRRVAEAIARMGVRYVVLTSVDRDDLPDGGASHFAATIRAIKERAPGVLVEALTPDFQGDLKAVETVLAANPEVYAQNLETVRRLTPKVRDPRAGYEQTLKVLAHAKKVRPDILTKSSLMLGLGETEEEILEAMRDLRAAGVDILTLGQYLRPTPAHLPVARYVPPEDFKRYEAWGYELGFREVFAGPLVRSSYRADRVFLEATQR | not soluble
7 | MSLAWDEGKPRIITLTMNPALDITTSVDVVRPTEKMRCGAPRYDPGGGGINVARIVHVLGGCSTALFPAGGSTGSLLMALLGDAGVPFRVIPIAASTRESFTVNESRTAKQYRFVLPGPSLTVAEQEQCLDELRGAAASAAFVVASGSLPPGVAADYYQRVADICRRSSTPLILDTSGGGLQHISSGVFLLKASVRELRECVGSELLTEPEQLAAAHELIDRGRAEVVVVSLGSQGALLATRHASHRFSSIPMTAVSGVGAGDAMVAAITVGLSRGWSLIKSVRLGNAAGAAMLLTPGTAACNRDDVERFFELAAEPTEVGQDQYVWHPIVNPEASPEGHHHHHH | soluble
8 | MSLNEETRKKKKRPSLTTLYEGTMKEITSNENRYIEFLNFASRVHKYSFDEQLLLYAQKQDVHMVATFDIWKKLGRFVKRGSTAALLFDYTTQQRKYVFDISETGGEPLQVFDWQLLDNDKNDLLRYWNTYEKQSGTLVNWEDGIHAKIASYQKPIGDQIHPFFVKDIEVVAAYIIYQRTNTLIPEDLLLDVQSVLQIGKRDNTLLEIQHFANLTAKEFLQDVERILNNELKKERVLYHDRIKFEDELSRREWQPASRDREGHHHHHH | not soluble
